Reference: patent US20170119790A1, “Agents, Uses and Methods” (CYTOGUIDE A/S, priority 2009, published 2017)

Tests used:
[1] = target: T1, CHO cells expressing CD163 (Homo sapiens, UniProt Q86VB7); assay: CD163 antibody binding and uptake in CHO cells expressing CD163 (confocal microscopy); type: cell-based; conditions: 0 or 30 minutes, FIG. 7
T1 construct: Stably transfected Chinese hamster ovary (CHO) cells expressing the full-length human CD163; expressed in transfected cells
Procedure: Monocytes were isolated from PBMC by negative selection using magnetic beads from Dynal (Dynabeads® MyPure™ Monocyte Kit 2; Invitrogen A/S, Taastrup, Denmark) according to instructions provided by the manufacturer. Monocyte preparations were more than 95% (CD14^+) pure determined by flow cytometry. The isolated cells were washed twice with phosphate-buffered saline. Monocyte-derived macrophages (MDMs) were prepared by cell culture of monocytes (approximately 1×10^7 cells) for 4 days in 5% CO2 and 37° C. in RPMI 1640 media (RPMI 1640+25 mM HEPES+I-glutamine) (Invitrogen Corporation, Carlsbad, Calif., USA) with 20% FCS containing 100 ng/ml of M-CSF. MDMs were then detached from the flask by incubation with cell dissociation buffer (Invitrogen A/S, Taastrup, Denmark) for 30 minutes at 4 °C, then flushed, and scraped. […]
(§1) MDMs or CHO cells were washed with 4° C. cold D-PBS, pH 7.4, containing 1% BSA in Lab-Tek™ Chamber Slides (Thermo Fisher Scientific, Roskilde, Denmark). […] Fluorescence was visualized using a Zeiss Axiovert 200M microscope (Carl Zeiss GmbH, Jena, Germany) with an ×100 oil-immersion objective. […] Alternatively, immunostained cells were analyzed by confocal immunofluorescence microscopy using a Zeiss LSM-510 confocal microscope (Carl Zeiss GmbH, Jena, Germany). […]

[2] = target: T2, CD163 transfected Flp-In CHO cells (Homo sapiens, UniProt Q86VB7); assay: Cellular binding and uptake (endocytosis) of 125I-labeled anti-CD163; type: cell-based
T2 construct: Stably transfected Chinese hamster ovary (CHO) cells expressing the full-length human CD163; expressed in transfected cells
Procedure: (§2) Monocytes were isolated from PBMC by negative selection using magnetic beads from Dynal (Dynabeads® MyPure™ Monocyte Kit 2; Invitrogen A/S, Taastrup, Denmark) according to instructions provided by the manufacturer. Monocyte preparations were more than 95% (CD14^+) pure determined by flow cytometry. The isolated cells were washed twice with phosphate-buffered saline. Monocyte-derived macrophages (MDMs) were prepared by cell culture of monocytes (approximately 1×10^7 cells) for 4 days in 5% CO2 and 37° C. in RPMI 1640 media (RPMI 1640+25 mM HEPES+I-glutamine) (Invitrogen Corporation, Carlsbad, Calif., USA) with 20% FCS containing 100 ng/ml of M-CSF. MDMs were then detached from the flask by incubation with cell dissociation buffer (Invitrogen A/S, Taastrup, Denmark) for 30 minutes at 4 °C, then flushed, and scraped. The cells were then cultured for 24 hours in RPMI 1640 media (RPMI 1640+25 mM HEPES+I-glutamine) (Invitrogen Corporation, Carlsbad, Calif., USA) supplemented with 20% FCS containing 100 ng/ml of M-CSF at 37° C. in 95% air and 5% CO2 in Lab-Tek™ Chamber Slides (Thermo Fisher Scientific, Roskilde, Denmark). 200 nM dexamethasone (Merck KGaA, Darmstadt, Germany) was added during culture to increase CD163 expression. Stably transfected Chinese hamster ovary (CHO) cells expressing the full-length human CD163, as described above, were cultured in serum-free CHO medium (HyQ-CCM, HyClone, Logan, Utah) containing 300 μg/ml Hygromycin B, as previously described (2).
Endocytosis of ^125I-labeled anti-CD163 was investigated in CD163 transfected Flp-In Chinese hamster ovary (CHO) cells and mock-transfected Flp-In as described (Madsen, M., Moller, H. J., Nielsen, M. J., Jacobsen, C., Graversen, J. H., van den Berg, T. and Moestrup, S. K. (2004) Molecular characterization of the haptoglobin.hemoglobin receptor CD163. Ligand binding properties of the scavenger receptor cysteine-rich domain region. J. Biol. Chem., 279, 51561-51567.)

[3] = target: T3, CD163 receptor on surface of human macrophages (Homo sapiens, UniProt Q86VB7); assay: Cellular binding and uptake of fluorescently labeled CD163 antibodies in monocyte-derived macrophages; type: cell-based
T3 construct: Freshly drawn peripheral whole blood samples or PBMC; endogenous in cells; host or cells: human peripheral blood monocytes, blood dendritic cells, monocyte-derived macrophages (healthy donors, buffy coats)
Procedure: as §2
as §1, with “Denmark). The cells were then incubated with 10 μg/ml different clones of anti-CD163 for one hour at 4° C. and then washed three times with D-PBS, pH 7.4, with 1% BSA.” for “Denmark).”

[4] = test system: TNF production of pro-inflammatory macrophages; assay: Inhibition of LPS induction of TNF production in in vitro matured pro-inflammatory macrophages; type: cell-based, human; conditions: compared with free dexamethasone / buffer, FIG. 30-31
Procedure: Monocytes were obtained from MNC after isolation using Dynal Monocyte Negative
Monocytes were resuspended in RMPI 1640 medium (Sigma-Aldrich, Brøndby, Denmark) containing 20% fetal calf serum (FCS) supplemented with 100 ng/ml M-CSF (GenScript Corporation, New Jersey, USA) and penicillin/streptomycin (pen/strep) for 7 days. The first 3 days in Tissue Culture Flasks at 37° C. and 5% CO2. The monocytes were then detached from the flask by flushing and scraping. The monocytes were divided into smaller portions and further grown for four days. 0.9×10^5 cells per well were grown in 96 well tissue culture plates for TNF CBA use.
Subsequently, the macrophages were activated in RMPI 1640 containing 5% FCS, 1 ug/ml lipopolysaccaride (LPS) (Sigma-Aldrich, Brøndby, Denmark) and 20 ng/ml INF-gamma (Genscript Corporation, New Jersey, USA) for 18 hours making them pro-inflammatory.
The pro-inflammatory macrophages were stimulated with RMPI160, 5% FCS, 1 ug/ml LPS and 20 ng/ml INF-gamma containing either dexamethasone, Ab-dexamethasone or no drug.
To detect the change in soluble TNF-alpha concentration we used the Cytometry Bead Array Kit (BD Biosciences, New Jersey, USA). The media from the in vitro stimulated macrophages (described earlier) grown in 96 well tissue culture plates were analyzed according to the manufacturer's protocol.

T3 sequence (Q86VB7 42-1156): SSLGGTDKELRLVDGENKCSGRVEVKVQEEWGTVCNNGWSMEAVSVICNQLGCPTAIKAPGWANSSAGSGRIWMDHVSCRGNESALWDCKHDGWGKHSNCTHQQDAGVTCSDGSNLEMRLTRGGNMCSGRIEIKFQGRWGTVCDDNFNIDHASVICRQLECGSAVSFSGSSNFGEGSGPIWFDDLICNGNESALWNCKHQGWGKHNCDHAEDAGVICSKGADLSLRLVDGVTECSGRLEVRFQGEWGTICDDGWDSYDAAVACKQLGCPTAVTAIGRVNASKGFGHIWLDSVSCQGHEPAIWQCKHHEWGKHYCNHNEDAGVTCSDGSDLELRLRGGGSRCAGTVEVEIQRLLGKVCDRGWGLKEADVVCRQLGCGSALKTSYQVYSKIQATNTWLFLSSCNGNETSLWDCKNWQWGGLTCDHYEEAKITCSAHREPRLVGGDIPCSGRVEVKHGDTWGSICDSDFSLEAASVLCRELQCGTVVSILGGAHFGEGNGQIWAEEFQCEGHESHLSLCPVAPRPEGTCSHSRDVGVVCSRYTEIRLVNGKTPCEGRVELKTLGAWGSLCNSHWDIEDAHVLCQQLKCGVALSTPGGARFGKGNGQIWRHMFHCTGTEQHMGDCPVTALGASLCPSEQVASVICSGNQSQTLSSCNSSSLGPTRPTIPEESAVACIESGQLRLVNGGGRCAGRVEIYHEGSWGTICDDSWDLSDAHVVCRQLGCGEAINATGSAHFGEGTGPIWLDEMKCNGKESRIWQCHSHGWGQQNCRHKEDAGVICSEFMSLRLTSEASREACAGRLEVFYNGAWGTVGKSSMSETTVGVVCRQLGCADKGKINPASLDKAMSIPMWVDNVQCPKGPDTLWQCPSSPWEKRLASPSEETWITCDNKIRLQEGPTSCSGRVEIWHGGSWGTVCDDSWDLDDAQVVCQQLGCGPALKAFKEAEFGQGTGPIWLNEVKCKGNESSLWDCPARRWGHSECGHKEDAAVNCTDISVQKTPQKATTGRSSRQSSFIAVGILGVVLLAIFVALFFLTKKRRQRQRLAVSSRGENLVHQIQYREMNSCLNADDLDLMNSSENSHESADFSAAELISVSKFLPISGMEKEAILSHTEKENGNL
T2 sequence (Q86VB7 42-1156): as above
T1 sequence (Q86VB7 42-1156): as above

B1: MAC2-158: anti-human CD163 murine mAb, binds SRCR domain 1, IQ Products; VH SEQ ID NO: 1, VL SEQ ID NO: 2 (antibody, V domains shown)
VH: DVQLQESGPGLVKPSQSLSLTCTVTGYSITSDYAWNWIRQFPGNKLEWMGYITYSGITNYNPSLKSQISITRDTSKNQFFLQLNSVTTEDTATYYCVSGTYYFDYWGQGTTLTVSS
VL: SVVMTQTPKSLLISIGDRVTITCKASQSVSSDVAWFQQKPGQSPKPLIYYASNRYTGVPDRFTGSGYGTDFTFTISSVQAEDLAVYFCGQDYTSPRTFGGGTKLEIKRA
modifications: Mac2-158 VH; Mac2-158 VL
binding and uptake [1]: best binding and uptake | time course of cell-associated radioactivity (bound or internalized) ([2]; 125I-labelled mAb, increasing time points): did not reach a plateau | percentage of cell-associated radioactivity reached ([2]; 125I-labelled mAb, stable CD163 transfected Flp-In CHO cells): 61.27% | cellular uptake and binding to CD163-expressing cells ([2]; compared with the other tested antibodies, FIG. 5): considerably higher | binding and uptake ([3]; 0 or 30 minutes, FIG. 6): best binding and uptake | intensity of intracellular staining ([3]; after incubation for 30 min): most prominent | cell surface staining ([3]; immunofluorescence, 0 min, macrophages stimulated with 200 nM dexamethasone): pronounced cell surface staining | effect on TNF production of macrophages [4]: no effect different from buffer
